Laboratory results reported in patent US20070066551, “Aptamer medicinal chemistry” (published 2007).

Assays:
Details in all cases: label: 5'-32P
[1] = molecular target: T1, von Willebrand Factor (vWF) (UniProt P04275 P04275:764-2813); assay: filter; DPBS with Ca/Mg, 0.1 mg/mL BSA, 24 C
[2] = molecular target: T2, IL-23 (full length) (Homo sapiens, UniProt Q9NPF7;P29460 Q9NPF7:20-189,P29460:23-328); assay: filter; PBS without Ca/Mg, 0.1 mg/mL BSA, RT 30 min; 13 nM in DPBS with Ca/Mg (Table 5)
Source text: (§1) A three-layer filtration medium was used, consisting (from bottom to top) of Protran nitrocellulose (Schleicher & Schuell), Hybond-P nylon (Amersham Biosciences) and GB002 gel blot paper (Schleicher & Schuell). RNA that is bound to protein is captured on the nitrocellulose filter, whereas the non-protein bound RNA is captured on the nylon filter. The gel blot paper was included simply as a supporting medium for the other filters. Following filtration, the filter layers were separated, dried and exposed on a phosphor screen (Amersham Biosciences, Piscataway, N.J.) and quantified using a Storm 860 Phosphorimager® blot imaging system (Amersham Biosciences).
A set of ARC979 (SEQ ID NO 1) derivative aptamers introducing single phosphorothioate substitutions (Glen Research, Sterling, Va.) were chemically synthesized by standard synthesis techniques. In each set of derivatives, single phosphorothioate substitutions were systematically introduced at each internucleotide linkage position resulting in each derivative within one set having an aptamer with a phosphorothioate substitution at a different internucleotide position. These derivatives were gel purified and assayed for IL-23 binding, using the dot blot assay described above under the following binding reaction conditions: 1×PBS (without Ca⁺⁺ or Mg⁺⁺) plus 0.1 mg/mL BSA, for a 30 minute incubation at room temperature. […]

[3] = molecular target: T2, IL-23 (full length); assay: filter; DPBS with Ca/Mg, BSA, RT; parent 3.7 nM
Source text: as §1
The dot blot binding assay previously described was used to characterize the relative potency of the majority of the aptamers synthesized as compared to the parent molecule, ARC1386. […] KD values were calculated by fitting the equation y=(max/(1+K/protein))+yint using KaleidaGraph (KaleidaGraph v. 3.51, Synergy Software).

[4] = molecular target: T1, von Willebrand Factor (vWF); assay: filter; DPBS with Ca/Mg, 0.1 mg/mL BSA, 24 C; remark: listed apart in the source
Source text: as §1
A set of ARC1172 (SEQ ID NO 3) derivative aptamers introducing single phosphorothioate substitutions (Glen Research, Sterling, Va.) were chemically synthesized using standard synthesis techniques. In each set of derivatives, single phosphorothioate substitutions were systematically introduced at each internucleotide linkage position resulting in each derivative set having an aptamer with a phosphorothioate substitution at a different internucleotide position. […] KD values for the ARC1172 derivative aptamers were calculated by fitting the equation y=(max/(1+K/protein))+yint using KaleidaGraph (KaleidaGraph v. 3.51, Synergy Software).

T2 sequence (Q9NPF7 20-189, chain 1 of 2): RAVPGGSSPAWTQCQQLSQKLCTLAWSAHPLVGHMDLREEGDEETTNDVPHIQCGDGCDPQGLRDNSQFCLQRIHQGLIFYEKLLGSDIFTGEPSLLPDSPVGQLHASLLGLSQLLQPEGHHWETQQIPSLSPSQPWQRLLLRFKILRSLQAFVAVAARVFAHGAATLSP
T2 sequence (P29460 23-328, chain 2 of 2): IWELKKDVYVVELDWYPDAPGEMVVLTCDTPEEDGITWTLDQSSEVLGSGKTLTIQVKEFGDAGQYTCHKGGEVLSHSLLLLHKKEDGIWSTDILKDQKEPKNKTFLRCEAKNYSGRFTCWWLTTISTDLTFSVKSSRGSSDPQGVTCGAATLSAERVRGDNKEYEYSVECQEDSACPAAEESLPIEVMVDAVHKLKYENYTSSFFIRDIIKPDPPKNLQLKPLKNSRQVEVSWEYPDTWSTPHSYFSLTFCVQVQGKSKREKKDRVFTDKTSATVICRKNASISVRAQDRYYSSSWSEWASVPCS

## GCGUGCAGUGCCUUCGGCCGTGCGGTGCCUCCGUCACGC (mixed, multiple 2'-OMe substitutions as in Table 3; 3'-idT (last t of SEQ)) [ARC1361]
[1]
  Kd: 7.9 nM

B1: ARC1368 (mixed)
mixed: GCGUGCAGUGCCUUCGGCCGTGCGGTGCCUCCGUCACGC
modifications: as ARC1361 plus PS between 20 and 21 (as printed, mG-s-T); 3'-idT (last t of SEQ)
[1]
  Kd: 1.8 nM

## ACAGGCAAGUAAUUGGGGAGUGCGGGCGGGGUGU (mixed, 2'-deoxy purines, 2'-OMe pyrimidines (dRmY)) [ARC979]
[2]
  Kd: 90 nM

## ACAGGCAAGTAAUUGGGGAGUGCGGGCGGGGUGU (mixed, dRmY; 2'-deoxy dihydrouridine at 10; 3'-idT (last t of SEQ)) [ARC1709]
[3]
  Kd: 2.8 nM

## ACAGGCAAGUAAUUGGGGAGUGCGGGCGGGGTGU (mixed, dRmY; 2'-deoxy dihydrouridine at 32; 3'-idT (last t of SEQ)) [ARC1713]
[3]
  Kd: 2.2 nM

## GGCGTGCAGTGCCTTCGGCCGTGCGGTGCCTCCGTCACGCC (ssDNA, 3'-idT (last t of SEQ)) [ARC1172 w/3T]
[4]
  Kd: 2 nM

## GGCGTGCAGTGCCTTCGGCCGTGCGGTGCCTCCGTCACGCC (ssDNA, 3'-idT as printed in Table 3) [ARC1172]
[1]
  Kd: 2 nM
